Experimental data as given in PMC3875630 (ACS chemical biology, 2013).
Read-outs that look alike come from different tables or passages of the source.

Key:
[1] = target: the molecule itself; assay: crystal structure
[2] = target: the molecule itself; assay: crystal structure; remark: listed apart in the source

| Protein | stoichiometry N [1] | stoichiometry N [2] |
| --- | --- | --- |
| Selenomethionyl CalS11 (TDP-rhamnose 3'-O-methyltransferase), cell-free synthesized (enzyme, Micromonospora echinospora, selenomethionine in place of methionine) DSGDGQDLRAFVHDSPEETETTQRLTKLLTNSPIPTEELVNNLPLFLRRHQMTDLLSMDALYRQVLDVPGVIMEFGVRFGRHLGTFAALRGVYEPYNPLRRIVGFDTFTGFPDVNDVDRVGPTAYQGRFAVPGGYPAYLKEVLDAHECSDFFGHVTQRSVLVEGDVRETVPRYLAENPQTVIALAYFDLDLYEPTKAVLEAIRPYLTKGSIVAFDELDNPKWPGENIAMRKVLGLDHAPLRLLPGRPAPAYLRWGD | 10 |  |
| Native CalS11 (TDP-rhamnose 3'-O-methyltransferase), from E. coli (enzyme, Micromonospora echinospora) MDSGDGQDLRAFVHDSPEETETTQRLTKLLTNSPIPTEELVNNLPLFLRRHQMTDLLSMDALYRQVLDVPGVIMEFGVRFGRHLGTFAALRGVYEPYNPLRRIVGFDTFTGFPDVNDVDRVGPTAYQGRFAVPGGYPAYLKEVLDAHECSDFFGHVTQRSVLVEGDVRETVPRYLAENPQTVIALAYFDLDLYEPTKAVLEAIRPYLTKGSIVAFDELDNPKWPGENIAMRKVLGLDHAPLRLLPGRPAPAYLRWGD |  | 10 |
